The assay deals with human CD30 (tumor necrosis factor receptor superfamily, member 8 (TNFRSF8)) (human) (UniProt P28908). In words: cell-based or functional assay.
UniProt P28908, sequence (P28908 19-595): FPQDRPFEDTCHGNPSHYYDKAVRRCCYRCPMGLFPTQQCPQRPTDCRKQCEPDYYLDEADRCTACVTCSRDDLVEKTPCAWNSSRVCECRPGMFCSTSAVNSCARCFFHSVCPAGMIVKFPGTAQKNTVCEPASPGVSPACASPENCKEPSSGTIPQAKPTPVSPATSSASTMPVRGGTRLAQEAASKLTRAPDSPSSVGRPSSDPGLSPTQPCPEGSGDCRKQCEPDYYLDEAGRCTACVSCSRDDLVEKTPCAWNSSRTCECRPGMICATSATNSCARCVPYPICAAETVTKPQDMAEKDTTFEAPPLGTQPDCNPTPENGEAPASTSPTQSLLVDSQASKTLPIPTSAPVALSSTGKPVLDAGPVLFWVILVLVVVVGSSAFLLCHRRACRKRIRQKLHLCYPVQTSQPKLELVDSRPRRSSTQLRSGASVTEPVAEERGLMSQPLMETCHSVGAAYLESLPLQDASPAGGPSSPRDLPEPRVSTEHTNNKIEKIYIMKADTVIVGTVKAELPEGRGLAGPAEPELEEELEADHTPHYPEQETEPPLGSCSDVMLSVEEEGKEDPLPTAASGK

5F11-CD828Z CAR: the CD107a degranulation, % CD8+CD107a+ cells after 4 h with CD30-bv173 cells (% of live CD3+ lymphocytes) was 30; the CD107a degranulation, % CD8-CD107a+ cells after 4 h with CD30-bv173 cells (% of live CD3+ lymphocytes) worked out at 11.6; the IFNγ released (ELISA) after overnight culture with CD30+ HDLM-2 cells was found to be 3010 pg/mL; the IFNγ released (ELISA) after overnight culture with CD30+ SUDHL-1 cells was found to be 2300 pg/mL. Moreover, the antigen-specific IFNγ production on culture with CD30+ HH lymphoma cells was found to be 34300.

Take XmAb2513-28Z CAR: the CD107a degranulation, % CD8+CD107a+ cells after 4 h with CD30+ SUDHL-1 cells (% of live CD3+ lymphocytes) stood at 7.72; the CD107a degranulation, % CD8-CD107a+ cells after 4 h with CD30+ SUDHL-1 cells (% of live CD3+ lymphocytes) is 1.86; the IFNγ released (ELISA) on co-culture with CD30+ HH cells was 4700 pg/mL; the IFNγ released (ELISA) on co-culture with CD30+ SUDHL-1 cells was 2440 pg/mL. Besides, the IFNγ released (ELISA) on co-culture with CD30-bv173 cells was 388 pg/mL.

Take 5F11-CD8BBZ CAR: the CD107a degranulation, % CD8+CD107a+ cells after 4 h with CD30-bv173 cells (% of live CD3+ lymphocytes) was determined as 25.9; the CD107a degranulation, % CD8-CD107a+ cells after 4 h with CD30-bv173 cells (% of live CD3+ lymphocytes) was 12.1; the antigen-specific IFNγ production on culture with CD30+ HH lymphoma cells turned out to be 47700.

With AC10-28Z CAR, the CD107a degranulation, % CD8+CD107a+ cells after 4 h with CD30+ SUDHL-1 cells (% of live CD3+ lymphocytes) came to 6.18; the CD107a degranulation, % CD8-CD107a+ cells after 4 h with CD30+ SUDHL-1 cells (% of live CD3+ lymphocytes) is 1.34; the IFNγ released (ELISA) on co-culture with CD30+ HH cells worked out at 8140 pg/mL; the IFNγ released (ELISA) on co-culture with CD30+ SUDHL-1 cells is 4850 pg/mL. In addition, the IFNγ released (ELISA) on co-culture with CD30-bv173 cells was 538 pg/mL.

B1: 5F11-28Z CAR (protein)
chain: DIQMTQSPTSLSASVGDRVTITCRASQGISSWLTWYQQKPEKAPKSLIYAASSLQSGVPSRFSGSGSGTDFTLTISSLQPEDFATYYCQQYDSYPITFGQGTRLEIKGSTSGSGKPGSGEGSTKGQVQLQQWGAGLLKPSETLSLTCAVYGGSFSAYYWSWIRQPPGKGLEWIGDINHGGGTNYNPSLKSRVTISVDTSKNQFSLKLNSVTAADTAVYYCASLTAYWGQGSLVTVSSIEVMYPPPYLDNEKSNGTIIHVKGKHLCPSPLFPGPSKPFWVLVVVGGVLACYSLLVTVAFIIFWVRSKRSRLLHSDYMNMTPRRPGPTRKHYQPYAPPRDFAAYRSRVKFSRSADAPAYQQGQNQLYNELNLGRREEYDVLDKRRGRDPEMGGKPRRKNPQEGLYNELQKDKMAEAYSEIGMKGERRRGKGHDGLYQGLSTATKDTYDALHMQALPPR
B1 came in with a CD107a degranulation, % CD8+CD107a+ cells after 4 h with CD30+ SUDHL-1 cells (% of live CD3+ lymphocytes) of 47.4; a CD107a degranulation, % CD8+CD107a+ cells after 4 h with CD30-bv173 cells (% of live CD3+ lymphocytes) of 39.5; a CD107a degranulation, % CD8-CD107a+ cells after 4 h with CD30+ SUDHL-1 cells (% of live CD3+ lymphocytes) of 4.32; a CD107a degranulation, % CD8-CD107a+ cells after 4 h with CD30-bv173 cells (% of live CD3+ lymphocytes) of 6.82. Besides, the IFNγ released (ELISA) after overnight culture with CD30+ HDLM-2 cells worked out at 3530 pg/mL, the IFNγ released (ELISA) after overnight culture with CD30+ SUDHL-1 cells turned out to be 3490 pg/mL, the IFNγ released (ELISA) on co-culture with CD30+ HH cells stood at 78600 pg/mL and the IFNγ released (ELISA) on co-culture with CD30+ SUDHL-1 cells stood at 25500 pg/mL. Further, the IFNγ released (ELISA) on co-culture with CD30-bv173 cells was 3780 pg/mL; the IFNγ released (ELISA) on overnight culture with CD30+ HH cells, 0 µg/mL soluble human CD30 protein added amounted to 23000 pg/mL; the IFNγ released (ELISA) on overnight culture with CD30+ HH cells, 0.2 µg/mL soluble human CD30 protein added was 18400 pg/mL; the IFNγ released (ELISA) on overnight culture with CD30+ HH cells, 1 µg/mL soluble human CD30 protein added was found to be 19900 pg/mL. Also, the IFNγ released (ELISA) on overnight culture with CD30+ HH cells, 5 µg/mL soluble human CD30 protein added was 18700 pg/mL and the antigen-specific IFNγ production on culture with CD30+ HH lymphoma cells was 127000.

Values taken from patent publication US20190062426A1.
